Laboratory results reported in US20110142851A1 (EMERGENT PRODUCT DEVELOPMENT SEATTLE, published 2011).
Blank lines part the entries; values can stand above or below the binder they belong to.

B3: hu HIL6 AFH monomer (other)
chain: PEEPQLSCFRKSPLSNVVCEWGPRSTPSLTTKAVLLVRKFQNSPAEDFQEPCQYSQESQKFSCQLAVPEGDSSFYIVSMCVASSVGSKFSKTQTFQGCGILQPDPPANITVTAVARNPRWLSVTWQDPHSWNSSFYRLRFELRYRAERSKTFTTWMVKDLQHHCVIHDAWSGLRHVVQLRAQEEFGQGEWSEWSPEAMGTPWTESRSPPAGGGSDVAAPHRQPLTSSERIDKQIRYILDGISALRKETCNKSNMCESSKEALAENNLNLPKMAEKDGCFQSGFNEETCLVKIITGLLEFEVYLEYLQNRFESSEEQARAVQMSTKVLIQFLQKKAKNLDAITTPDPTTNASLLTKLQAQNQWLQDMTTHLILRSFKEFLQSSLRALRQM
B4: sIL6R Fc dimer (Fc fusion, UniProt P08887 20-358, looked up)
chain: LAPRRCPAQEVARGVLTSLPGDSVTLTCPGVEPEDNATVHWVLRKPAAGSHPSRWAGMGRRLLLRSVQLHDSGNYSCYRAGRPAGTVHLLVDVPPEEPQLSCFRKSPLSNVVCEWGPRSTPSLTTKAVLLVRKFQNSPAEDFQEPCQYSQESQKFSCQLAVPEGDSSFYIVSMCVASSVGSKFSKTQTFQGCGILQPDPPANITVTAVARNPRWLSVTWQDPHSWNSSFYRLRFELRYRAERSKTFTTWMVKDLQHHCVIHDAWSGLRHVVQLRAQEEFGQGEWSEWSPEAMGTPWTESRSPPAENEVSTPMQALTTNKDDDNILFRDSANATSLPVQD
notes: not shown: Fc

What was measured:
hu HIL6 AFH monomer = molecular target: B3; assay: SPR Biacore T100, binder captured by anti-human Fc
Description: (§1) Binding affinities and kinetic rate constants of interaction of hyper-IL6 (HIL6; monomer or dimer), and its components IL6 and sIL6R, with different anti-HIL6 binding domains in scFv, SMIP, Xceptor and reverse Xceptor formats were determined using a Biacore® T100 instrument (GE Healthcare, Piscataway, N.J.).
(§2) Anti-HIL6 SMIPS, Xceptors, and reverse Xceptors were captured by a monoclonal mouse anti-human Fc, which was covalently conjugated to a carboxylmethyl dextran (CM4) surface via amines using N-ethyl-N′-(3-dimethylaminopropyl)-carbodiimide hydrochloride and N-hydroxysuccinimide. The unoccupied sites of the activated surface were blocked by ethanolamine. […] In every cycle, three different HIL6 binders were captured on flow cells 2, 3 and 4, while flow cell 1 was used as the reference cell. For each cycle, a single concentration of a single HIL6-related molecule was injected for 150 seconds at 35 microliters per minute, and then allowed to dissociate for 300 seconds. At the end of the cycle, the surface was regenerated gently using 3M MgCl₂, which dissociates protein bound to anti-hFc capture antibody. Multiple cycles were performed to study binding of monomeric or dimeric HIL6 at different concentrations, in the range of 0-100 nM, for each set of three HIL6 binders captured. […] The experiment was performed at 25° C. Signal associated with binding to the reference cell was used to subtract for bulk refractive changes and blank (buffer-only) injections were used to correct for drift and system noise. The kinetic parameters and affinities were determined using BIAevaluation software. Anti-HIL6 scFv molecules were analyzed in the reverse orientation using a dimeric human HIL6/mouse IgG Fc fusion protein captured by an immobilized rabbit polyclonal anti-mouse IgG Fc antibody on the surface and injecting different concentrations of scFv over the surface. For the HIL6 components IL6 (eBioscience, catalog no. 14-8069) and sIL6R, a single 100 nM injection was performed to obtain a qualitative assessment of binding.

[1] = molecular target: T1, hu HIL6 Fc dimer (dimeric human HIL6/mouse IgG Fc fusion protein) (human); assay: SPR Biacore T100, binder captured by anti-human Fc
T1 construct: also called human hyper-IL6 (IL6R-IL6-mIgG); dimeric HIL6
T1 chain: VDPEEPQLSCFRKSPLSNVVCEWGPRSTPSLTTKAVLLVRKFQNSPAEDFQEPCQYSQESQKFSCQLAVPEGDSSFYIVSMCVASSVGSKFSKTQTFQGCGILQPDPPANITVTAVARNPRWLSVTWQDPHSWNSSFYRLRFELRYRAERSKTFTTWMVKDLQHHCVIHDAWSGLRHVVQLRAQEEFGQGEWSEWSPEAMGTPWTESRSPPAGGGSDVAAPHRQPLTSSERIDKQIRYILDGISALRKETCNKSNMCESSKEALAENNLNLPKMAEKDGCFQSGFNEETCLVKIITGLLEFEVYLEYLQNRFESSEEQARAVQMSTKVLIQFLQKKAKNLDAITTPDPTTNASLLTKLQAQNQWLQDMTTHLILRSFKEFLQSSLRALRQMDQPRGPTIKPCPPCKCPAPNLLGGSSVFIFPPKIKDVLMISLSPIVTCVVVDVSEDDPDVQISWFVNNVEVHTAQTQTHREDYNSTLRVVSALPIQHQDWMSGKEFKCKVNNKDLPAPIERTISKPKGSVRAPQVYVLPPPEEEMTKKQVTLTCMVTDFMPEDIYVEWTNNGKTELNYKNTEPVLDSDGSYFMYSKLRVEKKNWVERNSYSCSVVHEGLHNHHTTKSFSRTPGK
Description: as §1, §2

recombinant human IL6 = molecular target: T2, recombinant human IL6 (human, UniProt P05231 30-212); assay: SPR Biacore T100, binder captured by anti-human Fc
T2 construct: also called rhIL6; IL6 monomer
Description: as §1, §2

sIL6R Fc dimer = molecular target: B4; assay: SPR Biacore T100, binder captured by anti-human Fc
Description: as §1, §2

[2] = molecular target: T1, hu HIL6 Fc dimer (dimeric human …); assay: SPR Biacore T100, HIL6-mouse Fc captured by anti-mouse Fc, scFv injected
[3] = molecular target: T3, human gp130-Fc chimera (R&D Systems) (human, UniProt P40189 23-619); assay: SPR Biacore T100, binder captured by anti-human Fc
T3 construct: Bought product; also called Human gp130-human IgG Fc fusion protein; soluble gp130; not shown: human IgG Fc
T3 sequence (looked up): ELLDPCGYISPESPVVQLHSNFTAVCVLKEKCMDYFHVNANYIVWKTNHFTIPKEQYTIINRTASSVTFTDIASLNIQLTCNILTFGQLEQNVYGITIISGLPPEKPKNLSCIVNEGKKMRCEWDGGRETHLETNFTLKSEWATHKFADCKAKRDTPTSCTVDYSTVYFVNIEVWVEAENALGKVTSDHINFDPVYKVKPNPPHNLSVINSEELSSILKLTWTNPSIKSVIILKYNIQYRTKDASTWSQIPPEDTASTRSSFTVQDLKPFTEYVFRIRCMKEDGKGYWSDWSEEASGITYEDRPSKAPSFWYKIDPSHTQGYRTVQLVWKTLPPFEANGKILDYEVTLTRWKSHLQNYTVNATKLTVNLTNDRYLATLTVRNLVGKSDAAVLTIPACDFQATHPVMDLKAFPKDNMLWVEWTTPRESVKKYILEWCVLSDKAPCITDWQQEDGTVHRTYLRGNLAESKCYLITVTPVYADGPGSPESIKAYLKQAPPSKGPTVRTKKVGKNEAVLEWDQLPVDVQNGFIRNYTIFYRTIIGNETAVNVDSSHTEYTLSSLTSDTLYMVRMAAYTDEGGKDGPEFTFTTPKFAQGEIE

Kd (hu HIL6 AFH monomer): 31 nM
Kd [1]: 200 nM
binding result (recombinant human IL6): no binding (tested: 100 nM)
binding result (sIL6R Fc dimer): no binding (tested: 100 nM)
B1: TRU(S6)-1013 (Fc fusion)
chain: EVQLLESGGGLVQPGGSLRLSCAASGFTFSGYVMGWVRQAPGKGLEWVSSISPSGGYTLYADSVKGRFTISRDNSKNTLYLQMNSLRAEDTAVYYCARAFSTRWYWGAFDIWGQGTMVTVSSGGGGSGGGGSGGGGSQDIQMTQSPATLSLSPGERATLSCRASQSVRSYLAWYQQKPGQAPRLLIYDASNRATGIPARFSGSGSGTDFTLTITSLQPEDIATYYCQQYDNLPLTFGGGTKVEIKTGEPKSSDKTHTCPPCPAPEAAGAPSVFLFPPKPKDTLMISRTPEVTCVVVDVSHEDPEVKFNWYVDGVEVHNAKTKPREEQYNSTYRVVSVLTVLHQDWLNGKAYACAVSNKALPAPIEKTISKAKGQPREPQVYTLPPSRDELTKNQVSLTCLVKGFYPSDIAVEWESNGQPENNYKTTPPVLDSDGSFFLYSKLTVDKSRWQQGNVFSCSVMHEALHNHYTQKSLSLSPGK
notes: SMIP (scFv - linker - CH2CH3)

Kd [2]: 1.04 nM
B2: SEQ ID NO: 671 (scFv) (scFv)
scFv: EVQLLESGGGLVQPGGSLRLSCAASGFTFSFYQMHWVRQAPGKGLEWVSGIYPSGGYTKYADSVKGRFTISRDNSKNTLYLQMNSLRAEDTAVYYCARDLGYGSSWYYFDYWGQGTLVTVSSGGGGSGGGGSGGGGSQSALTQPASVSGSPGQSITISCSGTDSDVGGYNHVSWYQQHPGKAPKLIIYDVDHRPSGISNRFSGSKSGNTASLTISGLQAEDEADYYCSSYRSGSTYVFGTGTKVTVL

Binder: B3
Kd [3]: 0.68 nM

Binder: B4
binding result [3]: no binding (tested: 100 nM)

Kd [2]: 1.46 nM
B5: SEQ ID NO: 679 (scFv) (scFv)
scFv: EVQLLESGGGLVQPGGSLRLSCAASGFTFSWYLMHWVRQAPGKGLEWVSGIWPSGGHTLYADSVKGRFTISRDNSKNTLYLQMNSLRAEDTAVYYCAREPLLWFGELSYNWFDPWGQGTLVTVSSGGGGSGGGGSGGGGSQDIQMTQSPSSVSASVGDRVTITCRASQGISSWLAWYQQKPGKAPKLLIYAASSLQSGVPSRFSGSGSGTDFTLTISSLQPEDFATYYCQQANSFPLTFGGGTKVEIK
